From publication PMC9576616, “Synthesis, preclinical evaluation and radiation dosimetry of a dual targeting PET tracer [^68Ga]Ga-FAPI-RGD” (Theranostics, 2022)
Like-named read-outs stand apart in the source and are kept apart here.

What was measured:
[1] = MicroPET imaging in Panc02 tumor-bearing mice; parameters: species or system C57BL/6 mice; details: C57BL/6, mouse, in vivo, iv, 7.4 MBq, total radioactivity; for tissue uptake at 0.5 h: 0.5 h p.i.; for tissue uptake at 1 h: 1 h p.i.; for tissue uptake at 2 h: 2 h p.i.; for tissue uptake at 4 h: 4 h p.i.
Experimental: All animal studies were approved by the Animal Care and Use Committee of Xiamen University and carried out in compliance with the national laws related to the conduct of animal experiments. Panc02 tumor model was generated by subcutaneous injection of 5 × 10^6 tumor cells suspended in 100 μL PBS, into the upper limb flank of C57BL/6 mice (Beijing Vital River Laboratory Animal Technology Co., Ltd.). The tumor mice were subjected to microPET and biodistributions studies when the tumor volume reached 200-300 mm^3.
PET scans were performed by using Inveon small-animal PET scanner (Siemens Preclinical Solution). About 7.4 MBq of [^68Ga]Ga-FAPI-RGD was given to Panc02 tumor xenografted mice through tail vein injection for the 10-min static PET imaging. At 0.5, 1, 2 and 4 h post-injection (p.i.), mice were anaesthetized and placed on imaging chamber of PET/CT scanner for image acquisition. […] The blocking study was performed by injecting unlabeled c(RGDfK), FAPI-02, or RGDfK+FAPI-02, before administering [^68Ga]Ga-FAPI-RGD. PET images were reconstructed using three-dimensional ordered-subset expectation-maximization (3D OSEM) algorithm and with a Maximum a Posteriori (MAP) method and analyzed through drawing regions of interest (ROIs).

[2] = human, in vivo
Experimental: Organ delineation and activity accumulation at each imaging time point was determined using Hybrid-Dosimetry software (Hermes Medical Solutions, Sweden). Time-activity curve fitting and subsequent dose calculation was performed using OLINDA/EXM, version 2.2.0. Kidneys, liver, spleen, urinary bladder content, L2-L4 lumbar vertebrae for red marrow dosimetry, heart content, lung, brain, pancreas, thyroid, salivary glands and stomach contents were included as source organs. Red bone marrow dosimetry was done by image-based 3D volumetric analysis of L2-L4 vertebrae, which is considered to constitute 6.7% of the total bone marrow. The ROIs for the above organs were drawn from the examination that had the best organ delineation and then were copied onto all other time points to calculate the time-activity curves. The mono- or bi-exponential curve fitting parameters were applied to derive the best curve fit for the residence time of activity in the source organ. Once all the organ residence times were derived from the kinetic input model, they were entered in the adult female or male model data to derive the absorbed doses to all the organs, including the whole-body effective dose, and generated in mSv/MBq and rem/mCi. The time-activity graphs of various organs were generated using GraphPad Prism software.

[3] = clinical; details: human, in vivo, total radioactivity
Experimental: (§1) All patients underwent [^68Ga]Ga-FAPI-RGD PET/CT and 2-[^18F]FDG PET scanning using a dedicated PET/CT scanner (Biograph mCT64, Siemens Healthcare).
(§2) [^68Ga]Ga-FAPI-RGD PET/CT The CT scans were performed with a tube voltage of 120 kV, an effective tube current of 70-120 mA (Care Dose 4D), and a slice thickness of 3 mm. Serial whole-body dynamic PET scans were immediately performed after the CT scan in 3D acquisition mode (matrix: 200 × 200). The whole body (from the top of skull to the middle of femur) of each patient was covered by 6 bed positions. The acquisition duration was 30 s/bed position at 3 min after injection; 1 min/bed position at 15 min after injection; and 2 min/bed position at 30, 60, and 120 min after injection.
(§3) 2-[^18F]FDG PET/CT All patients were fast at least 6 h to keep and images were obtained at 60-80 min after the intravenous injection of 2-[^18F]FDG (3.70 MBq [0.10 mCi]/kg). 2-[^18F]FDG was purchased from Fuzhou PET-Tracer Co. Ltd, and the radiochemical purity was more than 95%.
(§4) For [^68Ga]Ga-FAPI-RGD PET/CT, only PET/CT datasets acquired approximately 1 h after injection were used for analysis.

[4] = type: physicochemical
Experimental: Radiolabeling of ^68Ga was performed by incubation with 50 μg FAPI-RGD in NaOAc buffer solution (pH = 4.5) at 95 ℃ for 10 min. The product was purified by C18 column extraction. The radiochemical purity and stability of [^68Ga]Ga-FAPI-RGD were determined by radio-HPLC.
FAPI-RGD and its intermediate products were characterized by TOF-MS and HPLC (Figure S1-9). The radiolabeling yield and radiochemical purity of [^68Ga]Ga-FAPI-RGD were consistently over 99%. […] The radiochemistry purity was over 99% within 4 h.

[5] = in vivo; parameters: species or system C57BL/6 mice; details: C57BL/6, mouse, iv, 740 kBq, total radioactivity
Experimental: All animal studies were approved by the Animal Care and Use Committee of Xiamen University and carried out in compliance with the national laws related to the conduct of animal experiments. […] Tissue and organs of interest were collected, wet weighted and activity measured by a γ-counter. […] The results were calculated as percentage of injected dose per gram (%ID/g).

[6] = test system: malignant tumors and normal organs; assay: clinical; details: human, in vivo
Experimental: (§5) This study was approved by the institutional review board of the First Affiliated Hospital, Fujian Medical University and registered at ClinicalTrials.gov (NCT05515783). All patients signed an informed consent form before participation and all procedures were conducted in accordance with the Declaration of Helsinki. The inclusion criteria were as follows: […] (2) primary malignancies confirmed by pathology. The exclusion criteria were patients: (1) who suffered from severe hepatic and renal insufficiency; (2) pregnant or lactational women.

[7] = clinical; details: human, in vivo, total radioactivity; remark: listed apart in the source
Experimental: as §5

[8] = test system: Panc02 tumor cells; assay: Cellular uptake assay on Panc02 tumor cells; type: cell-based; details: 37 kBq, 37 °C, 10, 30, 60, 90 and 120 min, n = 4
Experimental: Panc02 cell line was purchased from the American Type Culture Collection (ATCC), and cultured in Dulbecco modified Eagle medium (DMEM) containing 10% (v/v) fetal bovine serum (FBS) at 37 °C with 5% CO2. Panc02 cells were seeded in 24-well plates with 2 × 10^5 cells per well. […] Then, the medium was removed and the cells were washed twice with cold PBS (pH 7.4) and subsequently lysed with 0.5 mL of NaOH (1 M). In the blocking studies, excess amount of unlabeled FAPI-RGD, FAPI-02, RGDfK, FAPI-02+RGDfK (10 μg/well) were added as inhibitors into the cells along with [^68Ga]Ga-FAPI-RGD. After 1 h, the cells were treated in the same way. Cell lysates was collected and the radioactivity was determined using a γ counter.

[9] = test system: primary tumors and metastases; assay: Comparison of [^68Ga]Ga-FAPI-RGD and 2-[^18F]FDG PET/CT tumor uptake in patients
Experimental: as §1, §2, §3, §4

[10] = i.v. tail vein, n = 3, ROI, mean ± SD
[11] = average SUVmean of thyroid glands

N#C[C@@H]1CCCN1C(=O)CNC(=O)c1ccnc2ccc(OCCCN3CCN(C(=O)CCOCCOCCNC(=O)[C@H](CCC(=O)NCCOCCOCCC(=O)NCCCC[C@@H]4NC(=O)[C@@H](Cc5ccccc5)NC(=O)[C@H](CC(=O)O)NC(=O)CNC(=O)[C@H](CCCNC(=N)N)NC4=O)NC(=O)CN4CCN(CC(=O)O)CCN(CC(=O)O)CC4)CC3)cc12 [[^68Ga]Ga-FAPI-RGD, metal not drawn]
tissue uptake at 0.5 h [1, 10]: 5.25 ± 0.54 %ID/g
tissue uptake at 1 h [1, 10]: 5.13 ± 0.65 %ID/g
tissue uptake at 2 h [1, 10]: 5.33 ± 0.27 %ID/g
tissue uptake at 4 h ([1]; i.v. tail vein, n = 3, ROI, mean ± SD, read-out: tumor uptake (microPET)): 5.04 ± 0.16 %ID/g
tissue uptake at 4 h ([1]; n = 3, read-out: blood uptake (microPET)): 1.4 ± 0.08 %ID/g
tissue uptake at 4 h ([1]; n = 3, read-out: kidney uptake (microPET)): 2.78 ± 0.46 %ID/g
tissue uptake at 4 h ([1]; n = 3, read-out: liver uptake (microPET)): 1.83 ± 0.39 %ID/g
effective dose [2]: 1.94 mSv/100 MBq
total body effective dose for administration of 185 MBq (5.0 mCi) [2]: 3.6 mSv
Estimated absorbed dose, Adrenals ([2]; iv): 1.04E-02 mSv/MBq
Estimated absorbed dose, Brain ([2]; iv): 3.38E-03 mSv/MBq
Estimated absorbed dose, Esophagus ([2]; iv): 7.55E-03 mSv/MBq
Estimated absorbed dose, Eyes ([2]; iv): 5.47E-03 mSv/MBq
Estimated absorbed dose, Gallbladder Wall ([2]; iv): 8.35E-03 mSv/MBq
Estimated absorbed dose, Heart Wall ([2]; iv): 2.04E-02 mSv/MBq
Estimated absorbed dose, Kidneys ([2]; iv): 3.24E-02 mSv/MBq
Estimated absorbed dose, Left colon ([2]; iv): 7.80E-03 mSv/MBq
Estimated absorbed dose, Liver ([2]; iv): 1.45E-02 mSv/MBq
Estimated absorbed dose, Lungs ([2]; iv): 2.33E-02 mSv/MBq
Estimated absorbed dose, Osteogenic Cells ([2]; iv): 1.07E-02 mSv/MBq
Estimated absorbed dose, Pancreas ([2]; iv): 3.06E-02 mSv/MBq
Estimated absorbed dose, Prostate ([2]; iv): 1.24E-02 mSv/MBq
Estimated absorbed dose, Rectum ([2]; iv): 1.06E-02 mSv/MBq
Estimated absorbed dose, Red Marrow ([2]; iv): 1.45E-02 mSv/MBq
Estimated absorbed dose, Right colon ([2]; iv): 7.53E-03 mSv/MBq
Estimated absorbed dose, Salivary Glands ([2]; iv): 2.09E-02 mSv/MBq
Estimated absorbed dose, Small Intestine ([2]; iv): 8.16E-03 mSv/MBq
Estimated absorbed dose, Spleen ([2]; iv): 2.25E-02 mSv/MBq
Estimated absorbed dose, Stomach Wall ([2]; iv): 1.20E-02 mSv/MBq
Estimated absorbed dose, Testes ([2]; iv): 7.13E-03 mSv/MBq
Estimated absorbed dose, Thymus ([2]; iv): 7.41E-03 mSv/MBq
Estimated absorbed dose, Thyroid ([2]; iv): 3.31E-02 mSv/MBq
Estimated absorbed dose, Total Body ([2]; iv): 8.92E-03 mSv/MBq
Estimated absorbed dose, Urinary Bladder Wall ([2]; iv): 2.26E-01 mSv/MBq
effective dose ([2]; iv): 1.94E-02 mSv/MBq
SUV at 1 h ([3]; SUVmax of metastasis): 6.5 ± 2.6 SUV
SUV at 1 h ([3]; SUVmax of primary lesion, patient with renal cell carcinoma): 5.1 SUV
SUV at 1 h ([3]; mean SUVmax in primary tumors): 8.9 ± 3.2 SUV
time of good stability in saline [4]: at least 4 h
tissue uptake at 0.5 h [5]: 6.16 ± 0.46 %ID/g
tissue uptake at 1 h [5]: 5.95 ± 0.43 %ID/g
tissue uptake at 2 h [5]: 5.78 ± 0.28 %ID/g
tissue uptake at 4 h [5]: 5.79 ± 0.22 %ID/g
decline of thyroid SUVmean from 3 min to 2.0 h [6]: 62.5%
main excretory organs [6]: kidneys were the main excretory organs
SUV at 0.05 h [7, 11]: 7.8 SUV
SUV at 2 h [7, 11]: 3 SUV
SUV at 0.05 h ([7]; average tumor SUVmax): 7 SUV
SUV at 0.25 h ([7]; average tumor SUVmax): 8 SUV
SUV at 0.5 h ([7]; average tumor SUVmax): 8 SUV
SUV at 1 h ([7]; average tumor SUVmax): 8.3 SUV
SUV at 2 h ([7]; average tumor SUVmax): 9.1 SUV

N=C(N)NCCC[C@@H]1NC(=O)[C@H](CCCCNC(=O)CN2CCN(CC(=O)O)CCN(CC(=O)O)CC2)NC(=O)[C@@H](Cc2ccccc2)NC(=O)[C@H](CC(=O)O)NC(=O)CNC1=O [[^68Ga]Ga-RGDfK, metal not drawn, reference compound]
tissue uptake at 0.5 h [1, 10]: 3.96 ± 0.24 %ID/g
tissue uptake at 1 h [1, 10]: 3.4 ± 0.16 %ID/g
tissue uptake at 2 h [1, 10]: 2.89 ± 0.09 %ID/g
cellular uptake compared with [^68Ga]Ga-FAPI-RGD [8]: less than [^68Ga]Ga-FAPI-RGD at all the time points
tissue uptake at 1 h [5]: 3.51 ± 0.47 %ID/g

OC[C@H]1O[C@@H](O)[C@H]([18F])[C@@H](O)[C@@H]1O [2-[^18F]FDG, reference compound]
mean SUVmax in primary tumors ([9]; 6 patients, FAPI-RGD approximately 1 h after injection, FDG 60-80 min after injection, mean ± SD, p = 0.459): 10.3 ± 6.9
SUVmax of primary lesion, patient with renal cell carcinoma ([9]; single patient, intra-individual comparison): 2.7
SUVmax of metastasis ([9]; three patients with metastatic foci, mean ± SD, p = 0.373): 7.6 ± 5.3
